Assay results from paper PMC12273641, “A cryo-electron microscopy structure of yeast Pex5 in complex with a cargo uncovers a novel binding interface” (Journal of Cell Science, 2025).

Experiments:
[1] = biological target: T1, Pex5 (full-length Saccharomyces cerevisiae Pex5, 1-612, His-Sumo fusion cleaved off) (Saccharomyces cerevisiae, UniProt P35056 1-612); assay: cryo-EM structure; single-particle cryo-EM of the co-expressed, co-purified Pex5–Eci1 complex (2 mg/ml, in PBS); 2.7 Å global, 2.9 Å local refinement of Pex5 and the interface; settings: both partners purified
T1 construct: Pex5, peroxisomal PTS1 cargo factor, Saccharomyces cerevisiae, full-length (1-612), cloned into pET28-bdSumo; only L276-F612 is resolved in the cryo-EM map; also called yeast Pex5; full-length yeast Pex5; source: for cryo-EM co-expressed with Eci1 and co-purified (Ni beads, elution by bdSumo protease, SEC); not shown: His tag, N-terminal, cleaved; bdSumo, N-terminal, cleaved
T1 sequence (looked up): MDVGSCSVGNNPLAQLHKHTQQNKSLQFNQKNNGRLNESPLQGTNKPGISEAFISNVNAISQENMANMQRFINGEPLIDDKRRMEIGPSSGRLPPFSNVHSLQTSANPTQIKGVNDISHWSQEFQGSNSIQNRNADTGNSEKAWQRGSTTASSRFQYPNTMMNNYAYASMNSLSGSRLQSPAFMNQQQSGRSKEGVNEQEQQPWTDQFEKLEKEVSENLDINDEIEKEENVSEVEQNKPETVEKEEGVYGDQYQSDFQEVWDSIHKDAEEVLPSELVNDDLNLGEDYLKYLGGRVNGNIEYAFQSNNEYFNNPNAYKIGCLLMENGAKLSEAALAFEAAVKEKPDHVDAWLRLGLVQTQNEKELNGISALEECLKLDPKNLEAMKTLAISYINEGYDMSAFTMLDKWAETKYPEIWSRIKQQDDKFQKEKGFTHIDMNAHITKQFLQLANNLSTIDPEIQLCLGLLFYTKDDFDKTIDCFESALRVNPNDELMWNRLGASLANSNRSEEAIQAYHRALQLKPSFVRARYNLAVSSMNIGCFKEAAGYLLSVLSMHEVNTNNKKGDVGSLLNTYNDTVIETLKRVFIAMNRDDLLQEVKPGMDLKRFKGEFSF

[2] = biological target: the molecule itself; assay: as above

B1: FLAG-Eci1 wild type (Saccharomyces cerevisiae Δ3,Δ2-enoyl-CoA isomerase 1) (natural protein, UniProt Q05871 1-280, looked up)
chain: MSQEIRQNEKISYRIEGPFFIIHLMNPDNLNALEGEDYIYLGELLELADRNRDVYFTIIQSSGRFFSSGADFKGIAKAQGDDTNKYPSETSKWVSNFVARNVYVTDAFIKHSKVLICCLNGPAIGLSAALVALCDIVYSINDKVYLLYPFANLGLITEGGTTVSLPLKFGTNTTYECLMFNKPFKYDIMCENGFISKNFNMPSSNAEAFNAKVLEELREKVKGLYLPSCLGMKKLLKSNHIDAFNKANSVEVNESLKYWVDGEPLKRFRQLGSKQRKHRL
notes: Eci1 (Δ3,Δ2-enoyl-CoA isomerase 1), Saccharomyces cerevisiae, wild type, M1-L280, ends in the PTS1 tripeptide 278HRL280; cloned into the first open reading frame of pACYCDuet-1; A TEV cleavage site follows the N-terminal FLAG tag; no TEV cleavage is described; Hexamer by cryo-EM; also called Eci1 WT; Eci1 (WT); source: E. coli BL21(DE3): co-expressed with Pex5, in lysate (pull-down); purified …
[1]
  stoichiometry N: 6 Eci1 per Pex5
[2]
  stoichiometry N: 6
